We go through one molecule from CN107042099A.

In assay [1] the target is Myc-GST融合蛋白 (Myc-GST fusion protein). The assay is described as follows: indirect ELISA, Myc-GST coated at 5 μg/mL, HRP anti-His secondary antibody, heat test at 90℃. A general note: In an ELISA, binding on a coated surface is turned into a signal by an enzyme label.
For assay [2] the target is unchanged. The assay can be described thus: indirect ELISA, Myc-GST coated at 5 μg/mL, HRP anti-His secondary antibody, heat test at 80℃.
For assay [3] the target is unchanged. The assay is described as follows: indirect ELISA, Myc-GST coated at 5 μg/mL, HRP anti-His secondary antibody, heat test at 70℃.

B1: 抗c-Myc标签单域重链抗体 (anti-c-Myc tag single-domain heavy-chain antibody) (VHH, not shown: small tags and cut ends)
VHH: QLQLVESGGGLVRPGESLRLSCDASSSEPPLLAYVVSWFRQVPGKEREGISCSSSSGVRNSYADSVKGRFTISRDNHKNTVYLQMNSLQAEDTAIYYCAAARLGARGCDFREDLQGTWGQGTQVTVSS
For the molecule B1, the OD450 in assay [1] turned out to be 1 OD450; in assay [2], 1.2 OD450; in assay [3], 1.4 OD450.
